T1: Sfpq wild-type (human, UniProt P23246 1-707)
T1 sequence: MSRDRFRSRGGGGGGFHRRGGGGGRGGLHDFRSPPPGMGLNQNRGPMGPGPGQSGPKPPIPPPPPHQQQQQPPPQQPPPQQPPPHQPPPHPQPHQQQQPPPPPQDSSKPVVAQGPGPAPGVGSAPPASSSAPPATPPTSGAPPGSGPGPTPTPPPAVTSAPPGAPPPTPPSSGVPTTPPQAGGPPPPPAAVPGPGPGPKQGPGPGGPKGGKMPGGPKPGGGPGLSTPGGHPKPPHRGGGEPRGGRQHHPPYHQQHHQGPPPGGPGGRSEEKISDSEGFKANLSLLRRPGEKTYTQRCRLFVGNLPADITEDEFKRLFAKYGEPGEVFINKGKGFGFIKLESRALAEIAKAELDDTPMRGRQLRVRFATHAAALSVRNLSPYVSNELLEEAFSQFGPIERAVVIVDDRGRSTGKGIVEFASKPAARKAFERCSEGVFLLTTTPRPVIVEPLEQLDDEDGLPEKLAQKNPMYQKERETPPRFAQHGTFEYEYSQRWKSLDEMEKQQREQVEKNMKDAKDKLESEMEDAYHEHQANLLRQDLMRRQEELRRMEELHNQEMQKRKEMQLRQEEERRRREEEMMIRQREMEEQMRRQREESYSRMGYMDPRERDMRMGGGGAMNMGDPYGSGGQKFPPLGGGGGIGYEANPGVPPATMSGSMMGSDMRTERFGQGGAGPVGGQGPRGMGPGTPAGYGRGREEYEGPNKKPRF


Biological target: T1, Sfpq wild-type
Test: UV crosslinking; 100 nM Sfpq; EMSA: 75 mM Hepes pH 7.9, 150 mM NaCl, 75 mM KCl, 0.1 mM EDTA, 5 mM DTT, 5 mM PMSF, 15% glycerol, 15 min, room temperature; AFM: 120 mM NaCl, 24 mM Tris-HCl pH
Conditions: protein: recombinant, tags: 6xHis (pET15b), chain copies: 2, label: 32P

Row | Binder | binding result | binding result (two copies of CUGUA (contains CUGU))
1 | CCCCGCCCCG (ssRNA) [Sfpq negative RNA oligo (CCCCG x2)] | no binding | –
2 | CUGUACUGUA (ssRNA) [CUGU/CUGUA x2 oligo] | – | binds

— PMC5662751, “Post-transcriptional gene silencing mediated by microRNAs is controlled by nucleoplasmic Sfpq”
